Test results published in US20210032299A1 (Eli Lilly, published 2021).
Starred links: 1 amine or outer side, 2 acyl side, 3 side chain; linkers in the order of their positions; H or OH if unused. Non-standard residues stand in square brackets, D forms with d. Groups on a side chain read outwards from the residue. No end group written: not given here. *: point of attachment. C20 diacid = O=C(O)CCCCCCCCCCCCCCCCCCC(=O)*; γGlu = O=C(O)[C@H](CCC(=O)[*:2])N[*:1]; 4Pal = N[C@@H](Cc1ccncc1)C(=O)O; αMeL = CC(C)C[C@](C)(N)C(=O)O; Orn = NCCC[C@H](N)C(=O)O; AEEA = NCCOCCOCC(=O)O; Aib = CC(C)(N)C(=O)O

T1: human glucose-dependent insulinotropic peptide receptor (human, UniProt P48546 22-466)
T1 sequence (looked up): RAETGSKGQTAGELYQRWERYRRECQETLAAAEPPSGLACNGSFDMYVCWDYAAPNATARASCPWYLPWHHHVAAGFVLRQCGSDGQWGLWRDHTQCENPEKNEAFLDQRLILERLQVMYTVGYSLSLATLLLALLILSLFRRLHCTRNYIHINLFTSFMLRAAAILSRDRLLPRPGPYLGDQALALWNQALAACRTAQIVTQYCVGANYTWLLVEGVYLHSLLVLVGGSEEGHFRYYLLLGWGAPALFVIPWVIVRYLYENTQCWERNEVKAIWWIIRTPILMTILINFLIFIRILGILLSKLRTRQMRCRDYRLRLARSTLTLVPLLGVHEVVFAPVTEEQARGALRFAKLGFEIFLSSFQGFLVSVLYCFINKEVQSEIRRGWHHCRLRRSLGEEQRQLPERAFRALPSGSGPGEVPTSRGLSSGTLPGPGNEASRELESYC


How the values were obtained:
Test in all cases: cell-based or functional assay
human glucagon receptor = human glucagon receptor (human, UniProt P47871 26-477)
[1] = biological target: T1, human glucose-dependent insulinotropic …
human GLP-1 receptor = human GLP-1 receptor (human, UniProt P43220 24-463)

Chain of human glucagon receptor (P47871 26-477): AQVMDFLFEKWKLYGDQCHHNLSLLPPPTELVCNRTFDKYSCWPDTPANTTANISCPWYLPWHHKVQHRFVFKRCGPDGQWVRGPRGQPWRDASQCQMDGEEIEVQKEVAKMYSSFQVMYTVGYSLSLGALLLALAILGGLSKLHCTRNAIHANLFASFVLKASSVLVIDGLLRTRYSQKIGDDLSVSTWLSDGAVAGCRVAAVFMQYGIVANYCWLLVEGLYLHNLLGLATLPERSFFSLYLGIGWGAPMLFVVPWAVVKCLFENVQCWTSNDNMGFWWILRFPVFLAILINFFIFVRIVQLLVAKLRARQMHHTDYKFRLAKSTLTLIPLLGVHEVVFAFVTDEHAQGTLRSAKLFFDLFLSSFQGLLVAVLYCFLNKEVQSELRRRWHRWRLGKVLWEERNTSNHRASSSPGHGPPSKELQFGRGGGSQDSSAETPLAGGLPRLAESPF

Binder	hGcgR cAMP Rel EC50 (human glucagon receptor) [µM]	hGIPR cAMP Rel EC50 [1] [nM]	hGLP1R cAMP Rel EC50 (human GLP-1 receptor) [µM]
YXEGTXISDYSIXLDKKHQXDFVEXLLEAGPSSGAPPPS (Aib2; Iva6; αMeL13; K17((2-[2-(2-Amino-ethoxy)-ethoxy]-acetyl)2-(γ-Glu)-CO-(CH2)18-CO2H); Aib20; 4-Pal25; C-terminal amide) [Example 88]	1.67	0.0031	> 5
Y[Aib]EGTFISDYSI[αMeL]LDEK([AEEA-AEEA-γGlu-C20 diacid])HQ[Aib]DFVE[4Pal]LLAGGPSSGAPPPS-NH2 (N-terminus assumed; SMILES CC[C@H](C)[C@H](NC(=O)[C@H](Cc1ccccc1)NC(=O)[C@@H](NC(=O)CNC(=O)[C@H](CCC(=O)O)NC(=O)C(C)(C)NC(=O)[C@@H](N)Cc1ccc(O)cc1)[C@@H](C)O)C(=O)N[C@@H](CO)C(=O)N[C@@H](CC(=O)O)C(=O)N[C@@H](Cc1ccc(O)cc1)C(=O)N[C@@H](CO)C(=O)N[C@H](C(=O)N[C@@](C)(CC(C)C)C(=O)N[C@@H](CC(C)C)C(=O)N[C@@H](CC(=O)O)C(=O)N[C@@H](CCC(=O)O)C(=O)N[C@@H](CCCCNC(=O)COCCOCCNC(=O)COCCOCCNC(=O)CC[C@H](NC(=O)CCCCCCCCCCCCCCCCCCC(=O)O)C(=O)O)C(=O)N[C@@H](Cc1c[nH]cn1)C(=O)N[C@@H](CCC(N)=O)C(=O)NC(C)(C)C(=O)N[C@@H](CC(=O)O)C(=O)N[C@@H](Cc1ccccc1)C(=O)N[C@H](C(=O)N[C@@H](CCC(=O)O)C(=O)N[C@@H](Cc1ccncc1)C(=O)N[C@@H](CC(C)C)C(=O)N[C@@H](CC(C)C)C(=O)N[C@@H](C)C(=O)NCC(=O)NCC(=O)N1CCC[C@H]1C(=O)N[C@@H](CO)C(=O)N[C@@H](CO)C(=O)NCC(=O)N[C@@H](C)C(=O)N1CCC[C@H]1C(=O)N1CCC[C@H]1C(=O)N1CCC[C@H]1C(=O)N[C@@H](CO)C(N)=O)C(C)C)[C@@H](C)CC) [Example 86]	> 5	0.03	> 5
Y[Aib]EGTFISDYSI[αMeL]LD[Orn]K([AEEA-AEEA-γGlu-C20 diacid])HQ[Aib]DFVE[4Pal]LLEGGPSSGAPPPS-NH2 (N-terminus assumed; SMILES CC[C@H](C)[C@H](NC(=O)[C@H](Cc1ccccc1)NC(=O)[C@@H](NC(=O)CNC(=O)[C@H](CCC(=O)O)NC(=O)C(C)(C)NC(=O)[C@@H](N)Cc1ccc(O)cc1)[C@@H](C)O)C(=O)N[C@@H](CO)C(=O)N[C@@H](CC(=O)O)C(=O)N[C@@H](Cc1ccc(O)cc1)C(=O)N[C@@H](CO)C(=O)N[C@H](C(=O)N[C@@](C)(CC(C)C)C(=O)N[C@@H](CC(C)C)C(=O)N[C@@H](CC(=O)O)C(=O)N[C@@H](CCCN)C(=O)N[C@@H](CCCCNC(=O)COCCOCCNC(=O)COCCOCCNC(=O)CC[C@H](NC(=O)CCCCCCCCCCCCCCCCCCC(=O)O)C(=O)O)C(=O)N[C@@H](Cc1c[nH]cn1)C(=O)N[C@@H](CCC(N)=O)C(=O)NC(C)(C)C(=O)N[C@@H](CC(=O)O)C(=O)N[C@@H](Cc1ccccc1)C(=O)N[C@H](C(=O)N[C@@H](CCC(=O)O)C(=O)N[C@@H](Cc1ccncc1)C(=O)N[C@@H](CC(C)C)C(=O)N[C@@H](CC(C)C)C(=O)N[C@@H](CCC(=O)O)C(=O)NCC(=O)NCC(=O)N1CCC[C@H]1C(=O)N[C@@H](CO)C(=O)N[C@@H](CO)C(=O)NCC(=O)N[C@@H](C)C(=O)N1CCC[C@H]1C(=O)N1CCC[C@H]1C(=O)N1CCC[C@H]1C(=O)N[C@@H](CO)C(N)=O)C(C)C)[C@@H](C)CC) [Example 82]	3.79	0.0391	> 5
Y[Aib]EGTFISDYSI[αMeL]LDEK([AEEA-AEEA-γGlu-C20 diacid])HQ[Aib]DFVE[4Pal]LLATGPSSGAPPPS-NH2 (N-terminus assumed; SMILES CC[C@H](C)[C@H](NC(=O)[C@H](Cc1ccccc1)NC(=O)[C@@H](NC(=O)CNC(=O)[C@H](CCC(=O)O)NC(=O)C(C)(C)NC(=O)[C@@H](N)Cc1ccc(O)cc1)[C@@H](C)O)C(=O)N[C@@H](CO)C(=O)N[C@@H](CC(=O)O)C(=O)N[C@@H](Cc1ccc(O)cc1)C(=O)N[C@@H](CO)C(=O)N[C@H](C(=O)N[C@@](C)(CC(C)C)C(=O)N[C@@H](CC(C)C)C(=O)N[C@@H](CC(=O)O)C(=O)N[C@@H](CCC(=O)O)C(=O)N[C@@H](CCCCNC(=O)COCCOCCNC(=O)COCCOCCNC(=O)CC[C@H](NC(=O)CCCCCCCCCCCCCCCCCCC(=O)O)C(=O)O)C(=O)N[C@@H](Cc1c[nH]cn1)C(=O)N[C@@H](CCC(N)=O)C(=O)NC(C)(C)C(=O)N[C@@H](CC(=O)O)C(=O)N[C@@H](Cc1ccccc1)C(=O)N[C@H](C(=O)N[C@@H](CCC(=O)O)C(=O)N[C@@H](Cc1ccncc1)C(=O)N[C@@H](CC(C)C)C(=O)N[C@@H](CC(C)C)C(=O)N[C@@H](C)C(=O)N[C@H](C(=O)NCC(=O)N1CCC[C@H]1C(=O)N[C@@H](CO)C(=O)N[C@@H](CO)C(=O)NCC(=O)N[C@@H](C)C(=O)N1CCC[C@H]1C(=O)N1CCC[C@H]1C(=O)N1CCC[C@H]1C(=O)N[C@@H](CO)C(N)=O)[C@@H](C)O)C(C)C)[C@@H](C)CC) [Example 83]	> 5	0.0432	> 5
Y[Aib]EGTFISDYSI[αMeL]LDEK([AEEA-AEEA-γGlu-C20 diacid])HQ[Aib]DFVE[4Pal]LLAAGPSSGAPPPS-NH2 (N-terminus assumed; SMILES CC[C@H](C)[C@H](NC(=O)[C@H](Cc1ccccc1)NC(=O)[C@@H](NC(=O)CNC(=O)[C@H](CCC(=O)O)NC(=O)C(C)(C)NC(=O)[C@@H](N)Cc1ccc(O)cc1)[C@@H](C)O)C(=O)N[C@@H](CO)C(=O)N[C@@H](CC(=O)O)C(=O)N[C@@H](Cc1ccc(O)cc1)C(=O)N[C@@H](CO)C(=O)N[C@H](C(=O)N[C@@](C)(CC(C)C)C(=O)N[C@@H](CC(C)C)C(=O)N[C@@H](CC(=O)O)C(=O)N[C@@H](CCC(=O)O)C(=O)N[C@@H](CCCCNC(=O)COCCOCCNC(=O)COCCOCCNC(=O)CC[C@H](NC(=O)CCCCCCCCCCCCCCCCCCC(=O)O)C(=O)O)C(=O)N[C@@H](Cc1c[nH]cn1)C(=O)N[C@@H](CCC(N)=O)C(=O)NC(C)(C)C(=O)N[C@@H](CC(=O)O)C(=O)N[C@@H](Cc1ccccc1)C(=O)N[C@H](C(=O)N[C@@H](CCC(=O)O)C(=O)N[C@@H](Cc1ccncc1)C(=O)N[C@@H](CC(C)C)C(=O)N[C@@H](CC(C)C)C(=O)N[C@@H](C)C(=O)N[C@@H](C)C(=O)NCC(=O)N1CCC[C@H]1C(=O)N[C@@H](CO)C(=O)N[C@@H](CO)C(=O)NCC(=O)N[C@@H](C)C(=O)N1CCC[C@H]1C(=O)N1CCC[C@H]1C(=O)N1CCC[C@H]1C(=O)N[C@@H](CO)C(N)=O)C(C)C)[C@@H](C)CC) [Example 85]	> 5	0.0359	> 5
Y[Aib]EGTFISDYSI[αMeL]LDEK([AEEA-AEEA-γGlu-C20 diacid])HQ[Aib]DFVE[4Pal]LLAQGPSSGAPPPS-NH2 (N-terminus assumed; SMILES CC[C@H](C)[C@H](NC(=O)[C@H](Cc1ccccc1)NC(=O)[C@@H](NC(=O)CNC(=O)[C@H](CCC(=O)O)NC(=O)C(C)(C)NC(=O)[C@@H](N)Cc1ccc(O)cc1)[C@@H](C)O)C(=O)N[C@@H](CO)C(=O)N[C@@H](CC(=O)O)C(=O)N[C@@H](Cc1ccc(O)cc1)C(=O)N[C@@H](CO)C(=O)N[C@H](C(=O)N[C@@](C)(CC(C)C)C(=O)N[C@@H](CC(C)C)C(=O)N[C@@H](CC(=O)O)C(=O)N[C@@H](CCC(=O)O)C(=O)N[C@@H](CCCCNC(=O)COCCOCCNC(=O)COCCOCCNC(=O)CC[C@H](NC(=O)CCCCCCCCCCCCCCCCCCC(=O)O)C(=O)O)C(=O)N[C@@H](Cc1c[nH]cn1)C(=O)N[C@@H](CCC(N)=O)C(=O)NC(C)(C)C(=O)N[C@@H](CC(=O)O)C(=O)N[C@@H](Cc1ccccc1)C(=O)N[C@H](C(=O)N[C@@H](CCC(=O)O)C(=O)N[C@@H](Cc1ccncc1)C(=O)N[C@@H](CC(C)C)C(=O)N[C@@H](CC(C)C)C(=O)N[C@@H](C)C(=O)N[C@@H](CCC(N)=O)C(=O)NCC(=O)N1CCC[C@H]1C(=O)N[C@@H](CO)C(=O)N[C@@H](CO)C(=O)NCC(=O)N[C@@H](C)C(=O)N1CCC[C@H]1C(=O)N1CCC[C@H]1C(=O)N1CCC[C@H]1C(=O)N[C@@H](CO)C(N)=O)C(C)C)[C@@H](C)CC) [Example 84]	> 5	0.034	> 5
